The target in data set [1] is T1, Smc5 hinge (extended-hinge);Smc6 hinge F528A (Schizosaccharomyces …, UniProt O13710;P53692 364-692;462-773, |F528A).
T1 sequence 1: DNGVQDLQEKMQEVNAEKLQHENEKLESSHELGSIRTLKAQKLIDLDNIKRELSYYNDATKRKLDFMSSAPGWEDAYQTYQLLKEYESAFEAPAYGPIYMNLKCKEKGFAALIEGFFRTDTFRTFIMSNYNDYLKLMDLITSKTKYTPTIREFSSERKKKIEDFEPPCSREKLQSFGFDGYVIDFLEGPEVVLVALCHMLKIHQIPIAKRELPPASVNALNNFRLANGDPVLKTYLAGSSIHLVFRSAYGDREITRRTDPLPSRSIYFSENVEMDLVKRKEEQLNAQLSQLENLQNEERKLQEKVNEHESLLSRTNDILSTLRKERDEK
T1 sequence 2: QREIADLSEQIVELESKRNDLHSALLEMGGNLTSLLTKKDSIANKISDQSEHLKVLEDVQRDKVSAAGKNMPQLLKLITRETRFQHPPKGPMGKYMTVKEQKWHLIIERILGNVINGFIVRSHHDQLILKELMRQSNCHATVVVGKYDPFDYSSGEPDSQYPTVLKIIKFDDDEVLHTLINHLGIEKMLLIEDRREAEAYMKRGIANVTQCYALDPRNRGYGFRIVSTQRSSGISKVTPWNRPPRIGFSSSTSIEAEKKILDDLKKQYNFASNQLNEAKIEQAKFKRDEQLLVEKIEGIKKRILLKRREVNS
Nature of the data set: fluorescence polarization; 20 mM HEPES.NaOH pH 7.5, 100 mM NaCl, 1 mM EDTA, 0.5 mM TCEP, room temperature 10 min, 100 nM DNA (FP, EMSA); pull-down same buffer, protein incubation 4 C 30 min; switchSENSE buffer not given. The settings on record: protein: recombinant;recombinant, tags: N-terminal His6, HRV-3C cleaved;N-terminal StrepII, copies: 1;1, label: 5' fluorescein, single strand.

Data set [2] concerns the target T2, Smc5 hinge (extended-hinge);Smc6 hinge R706C (Schizosaccharomyces …, UniProt O13710;P53692 364-692;462-773, |R706C).
T2 sequence 1: T1 sequence 1
T2 sequence 2: T1 sequence 2 with A67F, R245C
The data set is described as above. The settings on record: protein: recombinant;recombinant, tags: N-terminal His6, HRV-3C cleaved;N-terminal StrepII, copies: 1;1, label: 5' fluorescein, single strand.

Data set [3] deals with T3, Smc5 hinge (extended-hinge);Smc6 hinge (extended-hinge) (Schizosaccharomyces …, UniProt O13710;P53692 364-692;462-773, |).
T3 sequence 1: T1 sequence 1
T3 sequence 2: T1 sequence 2 with A67F
The data set is described as above. The settings on record: protein: recombinant;recombinant, tags: N-terminal His6, HRV-3C cleaved;N-terminal StrepII, copies: 1;1, label: 5' fluorescein, single strand.

For data set [4], the target named is T4, Smc5 hinge Y612A;Smc6 hinge (extended-hinge) (Schizosaccharomyces …, UniProt O13710;P53692 364-692;462-773, Y612A|).
T4 sequence 1: T1 sequence 1 with Y249A
T4 sequence 2: T1 sequence 2 with A67F
The description is as above. The settings on record: protein: recombinant;recombinant, tags: N-terminal His6, HRV-3C cleaved;N-terminal StrepII, copies: 1;1, label: 5' fluorescein, single strand.

In data set [5] the target is T3, Smc5 hinge (extended-hinge);Smc6 hinge …. In words: switchSENSE; biphasic association and dissociation; 20 mM HEPES.NaOH pH 7.5, 100 mM NaCl, 1 mM EDTA, 0.5 mM TCEP, room temperature 10 min, 100 nM DNA (FP, EMSA); pull-down same buffer, protein incubation 4 C 30 min; switchSENSE buffer not given. The following applies: protein: recombinant;recombinant, tags: N-terminal His6, HRV-3C cleaved;N-terminal StrepII, copies: 1;1, label: 3' Cy3, single strand, immobilized on gold.

Numbering of substitutions follows the chain as printed.

B1: 15mer (ssDNA)
DNA: GCTCGTCTGGCTCTG
Turning to B1, the Kd in data set [1] was ~1700 nM; in data set [2], ~1600 nM; in data set [3], ~1200 nM; in data set [4], ~1300 nM.

B2: switchSENSE 48mer (ssDNA)
DNA: GTGTGAACCCTCCAACAAAGGTAGCATTTGCCAGCTCTCGTGATGCAG
modifications: 5' HS-(CH2)6 thiol linker
On to B2, for which the binding result in data set [5] is listed as “binds”.

Source of the values: PMC5290277, “Specialized interfaces of Smc5/6 control hinge stability and DNA association”.
